This note sets out measurements from paper PMC5460017, “Regulated membrane remodeling by Mic60 controls formation of mitochondrial crista junctions” (Nature Communications, 2017).

The target in assay [1] is T1, Mic60solΔLBS1 (Chaetomium thermophilum Mic60sol with an internal deletion of LBS1) (Chaetomium thermophilum).
T1 chain: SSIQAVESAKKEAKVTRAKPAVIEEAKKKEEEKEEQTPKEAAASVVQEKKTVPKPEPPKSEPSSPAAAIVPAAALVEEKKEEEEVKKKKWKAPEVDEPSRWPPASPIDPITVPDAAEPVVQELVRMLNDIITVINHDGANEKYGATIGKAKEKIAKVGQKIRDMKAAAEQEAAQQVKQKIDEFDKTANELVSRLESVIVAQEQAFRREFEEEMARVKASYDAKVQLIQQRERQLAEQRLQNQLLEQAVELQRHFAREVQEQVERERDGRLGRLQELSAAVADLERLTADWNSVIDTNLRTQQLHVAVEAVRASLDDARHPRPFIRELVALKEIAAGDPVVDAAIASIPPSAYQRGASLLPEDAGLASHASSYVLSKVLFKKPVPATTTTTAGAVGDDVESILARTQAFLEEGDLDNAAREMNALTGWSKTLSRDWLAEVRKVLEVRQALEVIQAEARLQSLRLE
The assay can be described thus: native gel or EMSA; blue native (BN)-PAGE of purified Mic60 constructs. The note with it: both partners purified. (A gel shift assay detects complexes by their altered migration in electrophoresis.)

The target of assay [2] is T2, Mic60sol (Chaetomium thermophilum Mic60, residues 208–691) (Chaetomium thermophilum).
T2 construct: Mic60 of Chaetomium thermophilum, UniProt G0SHY5, residues 208-691; codon-optimized synthetic cDNA in a modified pET28a; source: E. coli BL21 DE3, purified (Ni-NTA, His6 tag cleaved with PreScission protease, size-exclusion chromatography); not shown: His6, N-terminal, cleaved
Nature of the assay: ITC; about 450 μM Mic19 construct in the syringe titrated into about 40 μM Mic60 construct in the cell; 10 °C; 20 mM HEPES/NaOH pH 7.5, 150 mM NaCl; untagged proteins. The following applies: both partners purified. Background: In ITC the heat of successive injections is recorded.

Bridge positions count the residues as written; N and C are the ends. Ends that are not written are not given here.

B1: Mic60solΔLBS1 (Chaetomium thermophilum Mic60sol with an internal deletion of LBS1) (domain or fragment)
chain: T1 chain
modifications: His6 tag removed; outer limits 208-691 printed; LBS1 = 563-582 deduced from the printed truncations ending at 562 (no LBS) and 582 (LBS1 kept); check residues lie in the deleted segment and only …
Take B1: the stoichiometry N – broadly, a count of units in the complex or per binding partner – in assay [1] was 2.

B2: isolated CHCH domain of Mic19 (Chaetomium thermophilum) (domain or fragment)
chain: RPLPESVEKARSEVVRCLREHDRRPLNCWQEVEAFKEEVRKLEKGWVDK
modifications: disulfide 17-28
In the case of B2, in assay [2], the dissociation constant Kd (as a rule, a measure of binding affinity in units of concentration) was found to be 390 nM and the “stoichiometry N” value was 0.77 ± 0.01.
